According to the supplement of paper PMC9170038:

Test system: MS2 coat protein
Experiment: apparent KD of MS2 coat protein; designed switch direction (-1 OFF switch, 1 ON switch): -1; higher = weaker reporter binding
Summary of the method: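 The reported apparent KD is a per-design median over clusters, from curve fits of normalised cluster fluorescence. Protein titrations used SNAP-549-labelled MS2 coat protein, doubled from 0.7 or 1.5 nM to 3 µM, in Tris-HCl pH 7.5 buffer with KCl, MgCl2, BSA, DTT, tRNA and Tween-20, with no input, 200 uM small-molecule ligand, or an oligonucleotide input. The RNA switches were transcribed on Illumina chips by stalled E. coli RNA polymerase.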

[1] = input ligand: microRNA oligo, concentration not stated
[2] = Eterna round: R95, input ligand: FMN 200 uM
[3] = Eterna round: R95, input ligand: microRNA oligo, concentration not stated
[4] = Eterna round: R95, input ligand: none

Sequence | apparent KD of MS2 coat protein (input ligand: FMN 200 uM) [nM] | apparent KD of MS2 coat protein (input ligand: none) [nM] | apparent KD of MS2 coat protein [3] [nM] | further results
ACCGCCGGCGUAAGGAUAUGUGAAGAAAUCCCUUUACAGAAGGUACAUGAGGAUCACCCAUGUCUUCUAGGACG [Eternabot (L1) Solution 96] (Eterna round: R97, puzzle: Brourd's mod of Exclusion 4) | 21.3 | 22.3 |  | 
ACCGUGAGGGUGAGGAUAUUCUGAGGGACGCCCUGGAAGAAGGUACAUGAGGAUCACCCAUGUGGCCUCAGACU [Eternabot (L2) Solution 99] (Eterna round: R97, puzzle: Brourd's mod of Exclusion 4) | 35.8 | 32.4 |  | 
ACCUAAAAGCUAGGAUAUACAUGAGGAUCACCCAUGUACACAGGAAGACUAACCUGUGGACUCAUGUAGAAGGAGCAUGACAAA [Raengearle] (Eterna round: R96, puzzle: Exclusion NG 2) | 117 | 283 |  | apparent KD of MS2 coat protein [1]: 349 nM
ACCUAAAAGCUAGGAUAUACAUGAGGAUCACCCAUGUACACAGGUAGACUAACCUGUGGACUCAUGUAGAAGGAGCAUGACAAA [Erongebe] (Eterna round: R96, puzzle: Exclusion NG 2) | 111 | 363 |  | apparent KD of MS2 coat protein [1]: 240 nM
ACCUCACAUGAGGAUCACCCAUGUCAGGAUAUAAAAGGAGGGCGAGGCAGCCAGGAAGUUAGAAGGGACACGCU [EX1 B.11] (Eterna round: R97, puzzle: Exclusion 1) | 21.2 | 23.7 |  | 
ACCUCACAUGAGGAUCACCCAUGUCAGGAUAUCUAAUGUAGUCGCGUUCCCGACGCUAAGAGAAGGGACGUUGA [EX1 #36] (Eterna round: R97, puzzle: Exclusion 1) | 15.8 | 15 |  | 
ACCUCACAUGAGGAUCACCCAUGUCAGGAUAUCUAUUAUUGCAGCAAUCCUGUCGCUGAGAGAAGGGACAUUAA [EX1 #27] (Eterna round: R97, puzzle: Exclusion 1) | 32.2 | 33 |  | 
ACCUCACAUGAGGAUCACCCAUGUCAGGAUAUCUUUUAAACCGCGAAUCGCGGCGCUGAGAGAAGGGACAUUAA [EX1 #20] (Eterna round: R97, puzzle: Exclusion 1) | 108 | 39.4 |  | 
ACCUCACAUGAGGAUCACCCAUGUCAGGAUAUGUACCUGGUCUAGUCAAAGACCAGAAGCAGAAGGGACUGCGG [Ria] (puzzle: Exclusion 1) |  |  | 87.8 | apparent KD of MS2 coat protein [2]: 29.7 nM; apparent KD of MS2 coat protein [4]: 106 nM
ACCUCACAUGAGGAUCACCCAUGUCAGGAUAUUCAAACAGGCGGAACUCCGCCUUCUCGAAGAAGGGACAUUAA [Ontebileza] (Eterna round: R96, puzzle: Exclusion 1) | 62.1 | 16.4 |  | apparent KD of MS2 coat protein [1]: 15.9 nM
ACCUCACAUGAGGAUCACCCAUGUCAGGAUAUUCAAACAGGCGGAACUCCGCCUUCUCGAAGAAGGGACAUUAA [Ontebileza] (puzzle: Exclusion 1) |  |  | 16.6 | 
ACCUCACAUGAGGAUCACCCAUGUUAGGAUAUCUCGAUGCUCCACGGGCGGUAGCAUCAGAGAAGGAACGUGCU [Vematior] (puzzle: Exclusion 1) |  |  | 19 | 
ACCUUACAUGAGGAUCACCCAUGUCAGGAUAUCUCGGGCGACCGAGGGCCGGCCGCCCAGAGAAGGGACGAGGA [Aainmaso] (puzzle: Exclusion 1) |  |  | 11.8 | 
ACGAAACAUGAGGAUCACCCAUGUGAGGAUAUGUAAAGACUAGACAAAGAACAGAAAAACAGAAGGCACACAGA [JR_Exclusion1_Sub002] (puzzle: Exclusion 1) |  |  | 19.7 | apparent KD of MS2 coat protein [2]: 28 nM; apparent KD of MS2 coat protein [4]: 26.7 nM
ACGAAAGCAAGCAAGUGAAACAUGAGGAUCACCCAUGUCCUCAUUUGCUCGUCUUAUAAAAGCUAUCGAAAGAUAGC [Mat - Sensor v3 - turn-off var 1 - Eli Mod - D47] (puzzle: Sensor v3, turn-off variant 1) |  |  | 157 | apparent KD of MS2 coat protein [2]: 11.9 nM; apparent KD of MS2 coat protein [4]: 13.2 nM
ACGAGGGUUACAGGAUAUGAAGCUAAAACGGCGUUAGAAGGGUAUACAGAGUUACAUGAGGAUCACCCAUGUUGUGACUUCGAA [AK ExNG1-V2-4] (Eterna round: R96, puzzle: Exclusion NG 1) |  |  |  | apparent KD of MS2 coat protein [1]: 29.4 nM
ACGAUGUUUGGAGGAUAUACAUGAGGAUCACCCAUGUGCGACCGAGUCCGCACUUCACCUCAGUGGUAGAAGGCCGAACAUCGA [Eternabot solution 12] (Eterna round: R96, puzzle: Exclusion NG 2) | 97.9 | 255 |  | apparent KD of MS2 coat protein [1]: 545 nM
ACGCAGAGAGGAUAUACAUGAGGAUCACCCAUGUAUAAACGCACUAACUCUCCUCACUGUAGAAGGCUCAUGCA [Larerige] (puzzle: Exclusion 3) |  |  | 11.3 | 
ACGCCGCAAGGAUAUCGUAAAGCAGACAUGAGGAUCACCCAUGUGAUAUCAGAAAGGCCACGAGAAGGUGCACAAG [Tigeor] (puzzle: Exclusion 5) |  |  | 20.3 | apparent KD of MS2 coat protein [2]: 32.4 nM; apparent KD of MS2 coat protein [4]: 21.3 nM

Sequence | apparent KD of MS2 coat protein (input ligand: FMN 200 uM) [nM] | apparent KD of MS2 coat protein (input ligand: none) [nM] | apparent KD of MS2 coat protein [3] [nM] | further results
ACGCGACAUGAGGAUCACCCAUGUGAGGAUAUGGCCUGUUUGGCGUGUGCUGGCUCUGUCAGAAGGCGCGUGGG [salish99_ex1_r4_040] (Eterna round: R97, puzzle: Exclusion 1) | 141 | 90.4 |  | 
ACGCGCAUAGGAUAUGCCGACGGAGAACUCCAGUGACUUCAACAUGAGGAUCACCCAUGUAGAAGGAUGAUGCA [Eternabot (Original) Solution 32] (Eterna round: R97, puzzle: Exclusion 2) | 16.8 | 14.8 |  | 
ACGCGUGAAGGAUAUACGCGGGCCCAAGCGGAUCACACCGCACAUGAGGAUCACCCAUGUAGAAGGUCACAAAA [r4x2dt1] (Eterna round: R97, puzzle: Exclusion 2) | 169 | 23.5 |  | 
ACGCGUGGCUAGGAUAUGCAGCAAUCUAGCCAGGCAGAAGGAGCCACAUGAGGAUCACCCAUGUGGUGAUCCUC [eternacac ex6r4 sub2] (Eterna round: R97, puzzle: Exclusion 6) | 8.21 | 11.2 |  | 
ACGCGUUUAGGAUAUACGUGCCUUGACAGUCCUAUUGUGUUACAUGAGGAUCACCCAUGUAGAAGGAGGCCGCG [Eternabot (L1) Solution 79] (Eterna round: R97, puzzle: Exclusion 2) | 19.4 | 20.2 |  | 
ACGGCAUAAGGAUAUGCAAGGUGCUGACUUCCUCCGUCAUUACAUGAGGAUCACCCAUGUAGAAGGUAUGUACC [Eternabot (Original) Solution 9] (Eterna round: R97, puzzle: Exclusion 2) | 18.4 | 18.5 |  | 
ACGUAUAGAGGAUAUACUGAAUAUUACAUGAGGAUCACCCAUGUUCUUCAAAGUAUAUUUGUAGAAGGCUAAUGAA [EX-5 Malc#9] (puzzle: Exclusion 5) |  |  | 10.2 | apparent KD of MS2 coat protein [2]: 15.8 nM; apparent KD of MS2 coat protein [4]: 9.61 nM
ACGUAUAGAGGAUAUAGUGAAUAUUACAUGAGGAUCACCCAUGUUCUUCAAAGUAUAUUCCUAGAAGGCUAAUGAA [EX-5 Malc#11] (puzzle: Exclusion 5) |  |  | 148 | apparent KD of MS2 coat protein [2]: 537 nM; apparent KD of MS2 coat protein [4]: 171 nM
ACGUGAUAUCUGUCGGUGGACAUGAGGAUCACCCAUGUGAGCUUUUUGCUCGUCUUAUAACCCGAUGACAGACCUUC [Anorin] (puzzle: Sensor v3, turn-off variant 1) |  |  | 266 | apparent KD of MS2 coat protein [2]: 14.2 nM; apparent KD of MS2 coat protein [4]: 13 nM
ACGUGGUGAGGAUAUGCACAAUACAAGAGUGUCAGAUCCGGACAUGAGGAUCACCCAUGUAGAAGGCACCCAAU [Eternabot (Original) Solution 10] (Eterna round: R97, puzzle: Exclusion 2) | 41 | 50.8 |  | 
ACUAAUAGAGGAUAUACAGUUUAUUACAUGAGGAUCACCCAUGUUCUUCAAUGUAUAUAAGUAGAAGGCUAUGGAA [EX-5 Malc#4] (puzzle: Exclusion 5) |  |  | 56.9 | 
ACUAAUUGAGGAUAUACAAGAAUUAACAUGAGGAUCACCCAUGUUCUUAUUUGAAUUAAAGUAGAAGGCAGAAGAA [JR_Ex5_Sub063] (Eterna round: R97, puzzle: Exclusion 5) | 16 | 28.9 |  | 
ACUAGAUGAGGAUAUACACAUUUUAGUGUUCCUCUAGAUUAACAUGAGGAUCACCCAUGUAGAAGGCAUCAUUU [Exclusion 2 - 10] (puzzle: Exclusion 2) |  |  | 80.8 | 
ACUAGAUGAGGAUAUGCACAUUUUAGUGUUCCUCUAGAUUAACAUGAGGAUCACCCAUGUAGAAGGCGUCAAUU [Exclusion 2 - 12] (puzzle: Exclusion 2) |  |  | 53.1 | 
ACUAGAUGAGGAUAUGCAUAUUUUCGUGUUCUUCUAGAUUAACAUGAGGAUCACCCAUGUAGAAGGCGUCAUUA [Exclusion 2 - 17] (puzzle: Exclusion 2) |  |  | 16.6 | 
ACUAGAUGAGGAUAUGCAUAUUUUCGUGUUCUUCUAGAUUAACAUGAGGAUCACCCAUGUAGAAGGCGUCUGGC [Exclusion 2 - 20] (puzzle: Exclusion 2) |  |  | 18 | 
ACUAGAUGAGGAUAUGCAUAUUUUCGUGUUCUUCUAGAUUAACAUGAGGAUCACCCAUGUAGAAGGCGUCUGGU [Exclusion 2 - 19] (puzzle: Exclusion 2) |  |  | 29.7 | 
ACUAGAUGAGGAUAUGCAUAUUUUCGUGUUCUUCUAGGUUAACAUGAGGAUCACCCAUGUAGAAGGCGUCUGGA [Exclusion 2 - 21] (puzzle: Exclusion 2) |  |  | 20 | 
